According to the RNAGym collection of RNA variant scans (doi:10.1073/pnas.2313332121):

B1: TPR t1 (parent)
chain: GACCAAUCUGCCCUCAGAGCUCGAGAACAUCUUCGGAUGCAGAGGAGGCAGGCUUCGGUGGCGCGAUAGCGCCAACGUCCUCAACCUCCAAUGCAUCCCACCACAUGAUGAUGCCUGAAGAGCCUUGGUUUUUUG

Variants of: B1
Assay: polymerase ribozyme fitness, log enrichment relative to wild type (log ratio); higher = more active; in vitro selection for triplet polymerase activity
Summary of the method: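 Mutant libraries of each subunit of a heterodimeric triplet polymerase ribozyme were built by PCR and transcribed. Each library went through one round of in vitro selection in triplicate: annealing with biotinylated primer, partner subunit and triplets, frozen incubation at −7 °C, gel excision of extended constructs, streptavidin-bead capture and RT-PCR. Input and output libraries were Illumina-sequenced; only genotypes with ≥10 input reads and ≥1 read per output were kept. Fitness is log2(genotype enrichment/wild-type enrichment), using inverse-variance-weighted replicate averages.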

| Variant | polymerase ribozyme fitness (log ratio) |
| --- | --- |
| C72U G117C U125G | -5.63 |
| C70U G110U G120A U129G | -5.09 |
| C72U G93U A111G | -2.76 |
| C70A U106G | -4.07 |
| C70U C115G U116C | -4.43 |
| C70A A100U | -2.07 |
| G71C G93A | -1.77 |
| C70A U81A G93A | -3.44 |
| C72U C94G A95G C123U | -0.867 |
| C70A G93A U116C C123A | -5.19 |
| G71A C82G G117U | -3.41 |
| C70U U87C U116A A121C | -2.16 |
| G71A G120C G127A U131G | 1.2 |
| G69U U78C C102U | 0.0221 |
| G71U U133A | -0.757 |
| C72A U129A | -1.32 |
| C70A C98U U130G | -2.6 |
| G69U U125A | -0.179 |
| C70U G110C | -4.32 |
| C70G G117A | -3.54 |
| G71U A83G A91C U96C G110A | -6.02 |
| G71A U78A | -0.645 |
| G71U U112A | 1.49 |
| C72U G113C C123G | -1.69 |

| Variant | polymerase ribozyme fitness (log ratio) |
| --- | --- |
| C70A G120C | -0.593 |
| C72A C86U | -0.17 |
| G71C G120A | -0.0968 |
| G71A U87G | -0.439 |
| C72U C85U C104G U112A G122U U133G | -6.97 |
| G69U U112G C123G | 1.13 |
| G71A U96G C123A | -0.833 |
| C72U U133C | 0.275 |
| C70A C88A C89U | -5.58 |
| C70G U96A | -4.79 |
| G71A U81G A83U C124A | -7.19 |
| G71U G127U | -1.02 |
| C72A C79A | -0.505 |
| C70G C85U A90U C104A C115A | -6.79 |
| C70G C86A | -4.89 |
| C72A A118C | -2.72 |
| C70A G122U | -1.64 |
| C72A U78G | -1.71 |
| C72U C82G G113U | -4.51 |
| C70A G113C | -3.23 |
| C72G C85U C86U | -2.99 |
| C70U C82A C85U | -1.4 |
| G71A A91G A121U | -0.169 |
| C70A A121G | 0.93 |

| Variant | polymerase ribozyme fitness (log ratio) |
| --- | --- |
| C70A A121C | 0.356 |
| C70A C82A | -1.54 |
| C72A C80U C88U | -0.793 |
| C70A A111G | -1.42 |
| C70A A111C | -2.46 |
| C70A U106C U129A | -2.95 |
| C72U A118G | -0.902 |
| C72A C85A A121C | 1.56 |
| C70U A103G | -4.3 |
| G71A G122A | -1.18 |
| C72U C76A C88A U96A | -3.05 |
| G71A U81C C115U | -3.59 |
| G71A C85U G128U U131A | -3.17 |
| C70U C82A | -1.09 |
| G71U C88U A100C U106G | -5.6 |
| G71A U92A C94U C115G | -4.8 |
| C70A C86A U87G | -2.94 |
| C72U A95G C98U G113A A118G | -4.04 |
| C70U G93C C115U | -3.35 |
| G71A C94U | -1.55 |
| C72U A90C | -1.33 |
| C70G U106C | -2.51 |
| C72G C85G | -1.98 |
| C72G C85A | -1.82 |

| Variant | polymerase ribozyme fitness (log ratio) |
| --- | --- |
| G71C U130A | -1.3 |
| C70A A83G C85A C88U | -2.53 |
| C70U U78A A95U U112G U133A | -0.788 |
| C70G U131A | -2 |
| G71A G110C | -4.27 |
| C72A C123U | 1.5 |
| C72A C123A | 0.479 |
| C70U G113C | -3.06 |
| C72U G77U C104A | -2.21 |
| C72G C104A U116A | -5.17 |
| C70U C102A C124G | -1.09 |
| G71U A91U U132C | -2.4 |
| G71A G135U | -1.5 |
| G71U C88U U130G U131G | -2.2 |
| C70U G71A U130C | -1.13 |
| C70A G117C | -3.77 |
| G69U U112A | 1.84 |
| C72U A91U | -1.73 |
| C72A A121U | 2.22 |
| C72A A121C | 1.46 |
| C72A A121G | 1.6 |
| G71U C115U | -1.41 |
| C70A U81C | -2.67 |
| C70U A74C C101U | -0.934 |

| Variant | polymerase ribozyme fitness (log ratio) |
| --- | --- |
| G71A U106C | -1.36 |
| C72G A103U | -5.45 |
| C70A C102U U112C | -2.21 |
| C72U G122U | 0.145 |
| C70A C89G U125A | -4.36 |
| C72U G93U | -1.56 |
| C72U G93A | -0.542 |
| C72U A74C | 0.54 |
| C72G G120C G128C | -3.07 |
| C72A A75C | -0.344 |
| C70G C99A G113A | -6.35 |
| G71U C99U | -4.69 |
| C72G G110A | -1.14 |
| G71U C101U | -0.379 |
| G71U C101G | -1.83 |
| G71U C101A | -1.24 |
| G71A C98G | -6.1 |
| C70U C76A A121U U125G | -0.883 |
| C70U G71U | -0.437 |
| G71C C79A C85G G120A | -3.28 |
| C72G C86A U87A | -4.6 |
| C72G C88G C115U | -3.24 |
| C72G C86A G93C C104G A108U U109G A118G | -6.21 |
| C72G U132C | -0.428 |

| Variant | polymerase ribozyme fitness (log ratio) |
| --- | --- |
| G71U U87G | -0.424 |
| G71U U87A | -1.3 |
| G71U C73G A90U C114U | -7.06 |
| C72G U92A U126G U129A | -6.86 |
| C72A A83G | -0.951 |
| C70U C72G G77C | -2.87 |
| C70U C82A C123U G128A | -1.76 |
| C70U C79U | 0.361 |
| C70U C79G | -2.8 |
| C70U C79A | -2.03 |
| G71C C98U | -1.75 |
| G71U C79U | -0.201 |
| C70U G77U U78C A95U C123G | 0.382 |
| C72G C123A | -0.175 |
| G71C A84G U133A | -3.86 |
| C72U A105U | -2.43 |
| G71C U106A G113C | -3.53 |
| G71U A90U | -1.78 |
| G71A G127C | -1.54 |
| C72U U78G | -1.7 |
| C72A G135U | -0.828 |
| C70A G71U A75G C99A A121U G127U | -4.8 |
| C72U C123G | 0.829 |
| C70G U78G | -2.07 |

| Variant | polymerase ribozyme fitness (log ratio) |
| --- | --- |
| C72A U131A G135U | 0.0704 |
| C70U C82G A118G | -1.41 |
| C72G U129G | -1.34 |
| C72G U129A | -1.02 |
| G71A C114U | -2.27 |
| C72G U131A | -0.469 |
| C70G A105U G113A | -6.59 |
| G71U A91G G93U | -2.17 |
| G71U U132C | -0.492 |
| C70U C72A A103U A108G G110A | -6.1 |
| C72G U133G | 0.34 |
| C70U U129C | -0.753 |
| G71A C104U | -0.49 |
| G71A C104A | -2.33 |
| C72A G93C C114U C115U | -6.52 |
| C70A C73G G120C | -5.26 |
| G71C U81C A90G | -2.36 |
| C72A A91C G127A | -2.21 |
| C70G A121G U131A | -0.0344 |
| C70A C89G | -3.96 |
| C70A U87C C102A | -3.97 |
| C73A A111C | 0.669 |
| C70U A74G G120C | -1.57 |
